Laboratory results reported in the Human Domainome abundance scans (Beltran et al. 2025).

B1: Ankyrin repeat and SOCS box protein 14, residues 532 to 572; numbered along this chain, A6NK59 (parent)
chain: RSLKHLCRLKIRKCMGRLHLRCPVFMSFLPLPNRLKAYVLY

Variants of: B1
Assay: abundance fitness (aPCA) (normalised: wild type 0, dead -1); higher = more abundant; growth selection in yeast, the domain comes from the species named
Conditions: Homo sapiens

Abundance fitness of substitutions, site by site:
L35: W 0.044
K36: M -0.398, Q -0.374, V -0.051, I -0.274, N -0.932, R -0.294, L -0.242, F -0.022, G -0.599, S -0.662, C -0.398, A -0.382, W -0.062, Y -0.335, P -0.725, E -0.732, T -0.423
L40: G -0.312, Q -0.192, E 0.031, P -0.405, A -0.075, S -0.092, R 0.055, T -0.247, D -0.113, V -0.132
A37: L -0.404, R -0.002, S -0.143, V -0.482, H -0.118, G -0.291, M -0.207, Q 0.083, P -0.995, E 0.021, C -0.091, W -0.502
V39: I -0.022, A -0.361, Q -1.3, D -0.95, W -0.43, T -0.186, S -0.779, L -0.098, G -0.743
Y41: G 0.368, N -0.052, T 0.169, V 0.398, R 0.373, W 0.072, M 0.257, S 0.356, C 0.146, H 0.12
Y38: E -0.599, H -0.535, Q -0.45, R -0.446, S -0.436, T -0.478, G -0.59, D -0.681, C -0.622, W 0.295, V -0.558, M -0.454, L -0.346, A -0.343, I -0.293, K -0.485, P -0.731
